Results taken from the DeepSol protein solubility set.

Assay: soluble on expression in E. coli; label from the status in PepcDB or PDB records

Sequence | soluble on expression in E. coli
MGSDKIHHHHHHMNNSLAFNHDTLPQKVMFGYGKSSAFLKQEVERRGSAKVMVIAGEREMSIAHKVASEIEVAIWHDEVVMHVPIEVAERARAVATDNEIDLLVCVGGGSTIGLAKAIAMTTALPIVAIPTTYAGSEATNVWGLTEAARKTTGVDLKVLPETVIYDSELTMSLPVEMSVASGLNGLAHCIDSLWGPNADPINAVLAAEGIRALNQGLPKIVANPHSIEGRDEALYGAYLAAVSFASAGSGLHHKICHTLGGTFNLPHAQTHATVLPYVLAFNAGDAPEAERRAAAAFGTDTALEGLQRLRLSVNAPKRLSDYGFEASGIAEAVDVTLEKVPANNPRPVTRENLSRLLEAALNGEDPAVLSAVLSN | not soluble
MKNTFLYFRWEDLHGEIGVDSFNLLRASYSNLSEQQLVELIKELISIEREDIAAKFDIHLSENAPVFDERQHVVYKGVAGDMNYKDMLLSLVTALDLTNTLDHVQNILSLAKCLRSFDREIFARFAKDIAEEVYYSLKLEHHHHHH | soluble
MLSVIGIGPGSQAMMTMEAIEALQAAEIVVGYKTYTHLVKAFTGDKQVIKTGMCREIERCQAAIELAQAGHNVALISSGDAGIYGMAGLVLELVSKQKLDVEVRLIPGMTASIAAASLLGAPLMHDFCHISLSDLLTPWPVIEKRIVAAGEADFVICFYNPRSRGREGHLARAFDLLAASKSAQTPVGVVKSAGRKKEEKWLTTLGDMDFEPVDMTSLVIVGNKTTYVQDGLMITPRGYTL | not soluble
MEKYIKEQRSICDKYKAEYVESPNDLKLGIAQNVKDGIAPINGLRMPIENGTTGWYIWAGEEMGTEEDFFLPLHVQHIDEWAPEIKKYLGLPPGWRFLIAGDYEDVWYDPNLFDEDLEEDADEWEENMLQEYGWYMHSILAEDIDGIHANYHTHGLRDNFNHQDLQIALNMDPEVAHSVFCTIIEEIKSGKKFEQGIEYTNIIEGYPIIMKSFVEMDREVLRVLLPDERGILPTRPECDECYKTQLDDIEES | not soluble
NLPDVQASKPSIAINLTRVGVTNMKKLVEIKRKDKRPIVLISTFDVFVDLPSDRKGANLSRNFEAVDEVLEKVLSTPVYEIEQLCSDIAHNLLGRHEYANQAEVRMKSEYMIRRASPSTGIKCQEVVNIFAEASAVRGNGDRDYFDVKKLIGAEVVGMTACPCAQEIMRDKAATELANLGVERDKIIKFLEKVPMATHNQRGRGIISIKVAHDFDVSLESIIKIIERSMSSSVYEVLKRSDEKVVVETAHMNPKFVEDCVRAMADNVVKEFPNLPDNAVITIKQTNEESI | not soluble
GMELQDTIFKRQSVRKFKNQDVSDEDILKMIKAAGAAPSGKNIQNWHFVVIKRRDLMEKIADVITKKQQEILVEMDKVSVDKANRFRKFVKNFTLFYLKAPVLVLVFTKVYNPSGYYELELIDAPKETIDKLFIRNPGMQSLGAAIENFTLSAIELGYGSCWLTSQNYAADEIEAVLEAETGFEKGEYFLGAMLALGVPEDNLKSPSKKPVEEICTFIK | soluble
MSLNRSSFDLLSTVEYGGCSAKLDPAKLSELLHDIPLPVDSRIMVDVSTHDDAGVYRLNDDTALIVTTDFFPPVCSDPYTFGRIAAANALSDVYAMGGRPLLVLNLTMFPSEGIPVEVLADILRGGQQTIDESGAFTMGGHTIDDPIPKYGLAVTGIVHPEHLVTNAGVRAGQCLVLTKPLGIGVAMAAHRLGLIGSEVYEAAIGQMCLLNRAGAELMQKYGIRGATDITGFGLLGHAKELAEASDVCLHIDSRSVPVLPECLSLLRDGCIPGATFRNLRFVGDMLRADCPTEYKMLLADAQTSGGLLMAVDADRAEDLVADLHRTGLHPFAAIIGYATDAEDAAKLIVTEGHHHHHH | soluble
MPAKIPITDNHMHIDPRARGLEAVKEFKNSGGTHIILVTKPSWSLGIAVKKPEDYLAVFDETVEIASKIREIGVGAFPVLGVHPAEISKITEYMDLSEAVETMKKGLELAAGYVERGLAVGIKSGRPHYPVPSDVWEASNEIMEHAFSLGKEQDCAVQLHTESVQEPELKDIAERARKTGIKMYRVVKHYSPPLVKTCEELGIFPGVISVKGAIEKAIEEGTRFMMETDYIDDPDRPGAVLGPKTIPKRTIKLMETYGEEPFWTIHKENPEKVYDIEIEL | not soluble
MTTASTSQVRQNYDQDSEAAINRQINLELYASYVYLSMSYYFDRDDVALKNFAKYFLHQSHEERCHAEKLMKLQNQRGGRIFLQDIQKPDRDDWESGLNAMEAALQLEKNVNQSLLELHKLATDKNDPHLSDFIETHYLNCQVCAIKCLGDHVTNLRKMGAPESGLAEYLFDKHTLGDSDNES | soluble
GDDNSYSLGDIWIAVATVVPEGNNVYYLRLDDGDKLWPAATNYPNYQPKPNQRALVNFTILADSTQSNLGGFSHYIKVNAIHNILTKSIAKNEGAANDSIYGTDPVSIYNNNMWIGDGYLNIYFETLWGGKTAHFINLIQPDAENDPYTLEFRHNAYDDPQYTIGAGRVAFNLSSLPDTKGETVDLVVNYWTSEGKQAYKLKYNSDKTKMEDTSQGYTNDSISNITDMK | soluble
MKGVNQQKKRLKVMTPLEKYQQDLNQEGFMHDSAQRNAVEHLDDLYRRFLELKVPEEPAKKSWKRFFKKEKPQKLTPEKGLYFWGGVGRGKTYLVDTFYDALPTERKMRIHFHRFMQRVHDELGELKQQSDPLLIVADKFKQETDIICFDEFFVSDITDAMILATLLEALFARGITLVATSNILPQDLYRNGLQRARFLPAISLIEQHCDIINVDSGVDYRLRTLEQAEIYHYPLDSDAETNMKGYFLQLASGCDYESTQIEINHRLIEVKAEGDGVVHFDFASLCESARSQHDYIELSRLYHTVLLSNVKIMGEVNDDAARRFIAMVDEFYERNVKLIISAEVDLTSIYQKGRLTFEFQRCQSRLIEMQSHEYLSKEHLSLEHHHHHH | not soluble
KSCCSCCPAGCEKCAKDCVCKGEEGAKAEAEKCSCCQ | soluble
MGSDKIHHHHHHVYTIARLHNFGCAFLYSPLTYPLYRSWLRTLTIKGNIIAIGASVADKPVGLALAEILRDGSAKLLSIFVDPNSRCLGIGTALVHSLEEELILRNCTSIEIVYIAGKSTSLALECLLKKCNWPSAKPRMLICKTTTNDMTNAPWMKLSRMPAAYEIFPWMEITFQERVALKKQQEEKRWMASDAIPFDYEQDLEPINSIGLRYKGEVVGWLITHRTAPDTIRYTCSYVRPDIQKMGRIIPLYIRATQLQMEAGISRGTWTVSLMHTSMIAFVKKHMGPYLISLEQSMESSKLLSHL | not soluble
MEYDVYVRVSKEDVHLLNYLLEVEEHMFNIRKYEDGVLKIITPFPEEAIKLLEGCKEMVDLEILEVKENPGEA | soluble
DLADRFAELERRYDARLGVYVPATGTTAAIEYRADERFAFCSTFKAPLVAAVLHQNPLTHLDKLITYTSDDIRSISPVAQQHVQTGMTIGQLCDAAIRYSDGTAANLLLADLGGPGGGTAAFTGYLRSLGDTVSRLDAEEPELNRDPPGDERDTTTPHAIALVLQQLVLGNALPPDKRALLTDWMARNTTGAKRIRAGFPADWKVIDKTGTGDYGRANDIAVVWSPTGVPYVVAVMSDRAGGGYDAEPREALLAEAATCVAGVLA | soluble
ATADPGVRAMDYQQATDVVIARGLSQRGVPFSWAGGGINGPTRGTGTGANTVGFDASGLMQYAYAGAGIKLPRSSGAMYRVGQKILPQQARKGDLIFYGPEGTQSVAMYLGNNQMLEVGDVVQVSPVRTAGMAPYMVRVLGT | soluble
MSSSNWEKLKKKLDSAKSGRVEKKHSNEKKYLKSVKGKNNENENSYIVDKKRMNELKKFAKENDIPESQVLDAYGVDASKLTRKTNLETLGKYIAMDCEMVGVADDMSVLARVSIVNYHGHVVYDTYVRPKEKVTDWRTWVSGVKSFHMRDAPSFEKVQAEVAKILDNRVLVGHAVHNDLKVLLLSHPRRMIRDTSRFSGYRKLAKGRTPGLKKLAEVILGRDIQSGQHSSVQDAQATMELYKKVKKEMDEVAFKGLSKS | soluble
MTIIGNPEIGLYTGKLPKGCELCRLGGKLVLFITGECDDNCYYCPVSDDRFGKNKIFANETEVNNSMDVIYEAYRMKALGAGITGGDPILEIGRVIEIIEELKNEFGYDFHIHLYTTGRYVNDDIMRELVNAGLDEMRFHPVKELYLNAVKVALKYDIDIGLELPAIPNEKDKIVRLIKWAEENNVKFVNLNELELNSRNYLNLNSKGFHAKHGITGVEGSFETALDVLKKFEDNKKITVHYCSSIYKDLVETRTRFFRIIKYSSKPYEEYTNEATVVRAIVKTKGEIPILENFGESTGSDEYSISPSIVGDLLNDYTNLINEIYIVEEHPDSRRLRVGEKLIYSKSKNS | not soluble
MDSKKILYISQEIFPYLPETDISVVSRKLPQTIQERGNEVRIFMPRYGIINERRNQLHEVIRLSGINMIINDNDHPLIIKVASIQSARMQVYFIDNDDFFKRKTMYDIKPKQENDNDERAIFFVRGALEAIKKLRWIPDVIHCHGWFTALAALYLKKMYADDPCLQKAKVVYSVYDDAGQGVIPETLFGKLGFDKITPDDLSVMEQSSDYLALNRLAIRYADGVIQGSETIAPELTDYISSLEGKAFLPYQGKEDYEEAFDNFYSDLLTANLEHHHHHH | not soluble
MYAALFPGQGSHRVGMGRALYEASPAAKEVLDRAEAALPGLLKLMWEGPEEALTLTENQQPALLAAGYAAYRAFLEAGGKPPALPEGHSLGEWTAHVAAGTLELEDALRLVRLRGRYMQEAVPVGEGAMAAVLKLPLEEIQKALEGLEGVEIANLNAPEQTVISGRRQAVEEAAERLKERRARVVFLPVSAPFHSSLMAPARKRLAEDLAQVPLRRPRFPVYSNVTARPEEDPERIRALLLEQITAPVRWVEILRDMEARGVKRFLEFGSGEVLKGLVLRTLKEAEALSVQDPDSLRKALEVERA | soluble
MGSDKIHHHHHHMHPKNAWYVACTADEVADKPLGRQICNEKMVFYRDQNQQVVAVEDFCPHRGAPLSLGYVENGQLVCGYHGLVMGGDGKTASMPGQRVRGFPCNKTFAAIERYGFIWVWPGEREKADPALIHHLEWAVSDEWAYGGGLFHIQCDYRLMIDNLMDLTHETYVHASSIGQKEIDEAPPVTTVEGEEVITARHMENIMPPPFWKMALRGNNLADDVPVDRWQICRFTPPSHVLIEVGVAHAGKGGYHAPHEFKASSIVVDFITPETDTSIWYFWGMARNFKPADEQLTATIREGQHKIFSEDLEMLERQQLNLLQHPHRNLLKLNIDAGGVQSRKILERLIAAEQADTADQIPVAAVK | not soluble
INAVRAALLENAHFMEKFYLQNGRFKQTSTKWPSLPIKEAEGFCIRLNGIARGALDSKFMLKAVAIDKDKNPFIIKMNENLVTFICKKSASSCSDGLDYFKGNDKDCKLLK | not soluble
MKEDPRIIKTLSKLQKAFVMLLKTYDAGDINVRQISDEAGVTRGAFYSHFSDKKEFVNFTINELVGSLFNSSLEHHHHHH | not soluble
MPKDELPNHNCIKHLRSVVQQQQSRIAELEKTRAEHKHQLAEQKRDIQLLKAYMRAIRSVNPNLQNLEETIEYNEILEWVNSLQPARVTRWGGMISTPDAVLQAVIKRSLVESGCPASIVNELIENAHERSWPQGLATLETRQMNRRYYENYVAKRIPGKQAVVVMACENQHMGDDMVQEPGLVMIFAHGVEEI | not soluble
MGWHFQQSVTMPSEWRTLALESDDSYNDFTVIMRRKLQENQVNVVNLEQNIPILRINKQITSDQVASIFKHGREAEKLLMLEVEATFRLANGESYPINAKVNRTFFDNARAALAKSEEREVIWNDMREQVARQLIVKIIALQNQIKRKLEHHHHHH | soluble
MSEISAIWERIEAWHAANDQTENLNPGATAEALAQAEKDMGLTFPPEMRESLLRHDGSVDDSWPTGELLSLERMADERKVWMDLLQDGTFDGNASHNESSEALQPGWWNPAWIPLDADGGGNGAVIDLAPGPQGTVGQVIDMDHEVGPSGPKYVSLAAYLEAMLERLSEAEE | soluble
